Here are results for 61 sequences from the supplement of paper PMC11780869.

The test system of the data set is Bacillus subtilis. Nature of the data set: cleaved RNA product abundance (RNA/gDNA barcode ratio) relative to median wild-type variant (ratio to wild type); higher = more accumulation of the downstream cleavage product. The conditions noted are these: experiment (reporter, strain, medium): exp 8a: truncated aprE reporter, strain BJT201 with 2% xylose (RNase J1 expressed); cleavage site: glnRA (positions -5 to +31 mutated). The procedure, abridged: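 Reporter mRNAs (truncated aprE or tetM) carrying barcoded, mutagenized RNase Y cleavage-site windows were made from oligos with a 9% error rate and integrated into the B. subtilis chromosome. Cultures grew in LB at 37°C from OD600 0.0003 to 0.3. Cleaved RNA was gel-selected, reverse transcribed and barcode-sequenced alongside genomic DNA barcodes, with UMI collapsing. Cleaved product abundance is the RNA:gDNA barcode ratio per variant, scaled to the median wild-type variant.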
On to “CGACATGTCCCGCTTCTTTCATTAATCCGTTAACAACTGTTTTGCTATATACATTTAGCTTTTAAGAGGAGGAAT”, for which the “cleaved RNA product abundance” value was 0.204. As to “CGACATGTCCCGCTTCTTTCATTAATCCGTTAACAACTGTTTTGCTATATACATTTATCTTTTAAGAGGAGGAAT”, the “cleaved RNA product abundance” value was 0.236. As to “CGACATGTCCCGCTTCTTTCATTAATCCGTTAACAACTGTTTTGCTATATACATTTCCCTTTTAAGAGGAGGAAT”, the “cleaved RNA product abundance” value was 0.155. Consider “CGACATGTCCCGCTTCTTTCATTAATCCGTTAACAACTGTTTTGCTATATACATTTGCATTTTAAGAGGAGGAAT”, for which the “cleaved RNA product abundance” value came to 0.202. Regarding “CGACATGTCCCGCTTCTTTCATTAATCCGTTAACAACTGTTTTGCTATATACATTTTCCTTTTAAGAGGAGGAAT”, the “cleaved RNA product abundance” value came out at 0.0904. In the case of “CGACATGTCCCGCTTCTTTCATTAATCCGTTAACAACTGTTTTGCTATATAGATTTACCTTTTAAGAGGAGGAAT” it was 0.201; in that of “CGACATGTCCCGCTTCTTTCATTAATCCGTTAACAACTGTTTTGCTATATATATTTACCTTTTAAGAGGAGGAAT”, 0.2.

For the sequence “CGACATGTCCCGCTTCTTTCATTAATCCGTTAACAACTGTTTTGCTGTATACATTTACCTTTTAAGAGGAGGAAT”, the “cleaved RNA product abundance” value worked out at 0.166.

As to “CGACATGTCCCGCTTCTTTCATTAATCCGTTAACAACTGTTTTGGTATATACATATAGCTTTTAAGAGGAGGAAT”, the “cleaved RNA product abundance” value came to 0.275.

Consider “CGACATGTCCCGCTTCTTTCATTAATCCGTTAACAACTGTTTTGTTATATACATTTACCTTTTAAGAGGAGGAAT”, for which the “cleaved RNA product abundance” value is 0.271.

On to “CGACATGTCCCGCTTCTTTCATTAATCCGTTAACAACTGTTTTTCTATATACATATACCTTTTAAGAGGAGGAAT”, for which the “cleaved RNA product abundance” value was determined as 0.304. In the case of “CGACATGTCCCGCTTCTTTCATTAATCCGTTAACAACTGTTTTTCTATATACATTTACCTTTTAAGAGGAGGAAT” it was 0.258; in that of “CGACATGTCCCGCTTCTTTCATTAATCCGTTAACAACTTTTTTGCTATATACATTTACCTTTTAAGAGGAGGAAT”, 0.193; in that of “CGACATGTCCCGCTTCTTTCATTAATCCGTTAACAATTGTTTTGCTACATACATTTACCTTTTAAGAGGAGGAAT”, 0.135.

Take “CGACATGTCCCGCTTCTTTCATTAATCCGTTAACAATTGTTTTGCTATATACATTTACCTTTTAAGAGGAGGAAT”: the “cleaved RNA product abundance” value came to 0.241. For the sequence “CGACATGTCCCGCTTCTTTCATTAATCCGTTAACACCTGTTTTGCTATATACATTTACCTTTTAAGAGGAGGAAT”, the “cleaved RNA product abundance” value was 0.258. On to “CGACATGTCCCGCTTCTTTCATTAATCCGTTAACATCTGTTTTGCTATATACATTTACCTTTTAAGAGGAGGAAT”, for which the “cleaved RNA product abundance” value was determined as 0.25. As to “CGACATGTCCCGCTTCTTTCATTAATCCGTTAACTACTGTTTTGCTATATACATTTACCTTTTAAGAGGAGGAAT”, the “cleaved RNA product abundance” value was determined as 0.265.

With “CGACATGTCCCGCTTCTTTCATTAATCCGTTAATAACTGTTTTGCTATATACATTTAACTTTTAAGAGGAGGAAT”, the “cleaved RNA product abundance” value was 0.205. Under “CGACATGTCCCGCTTCTTTCATTAATCCGTTAATAACTGTTTTGCTATATACATTTACCTTTTAAGAGGAGGAAT” stands 0.262; under “CGACATGTCCCGCTTCTTTCATTAATCCGTTACCAAATGTTTTGCTATATACATTTACCTTTTAAGAGGAGGAAT”, 0.256. With “CGACATGTCCCGCTTCTTTCATTAATCCGTTACCAACAGTTTTGCTATATACATTTACCTTTTAAGAGGAGGAAT”, the “cleaved RNA product abundance” value is 0.215. Take “CGACATGTCCCGCTTCTTTCATTAATCCGTTACCAACTATTTTGCTATATACATTTACCTTTTAAGAGGAGGAAT”: the “cleaved RNA product abundance” value came out at 0.178. On to “CGACATGTCCCGCTTCTTTCATTAATCCGTTACCAACTCTTTTGCTATATACATTTACCTTTTAAGAGGAGGAAT”, for which the “cleaved RNA product abundance” value was found to be 0.128. “CGACATGTCCCGCTTCTTTCATTAATCCGTTACCAACTGATTTGCTATATACATTTACCTTTTAAGAGGAGGAAT”: the “cleaved RNA product abundance” value was 0.205. As to “CGACATGTCCCGCTTCTTTCATTAATCCGTTACCAACTGTGTTGCTATATACATTTACCTTTTAAGAGGAGGAAT”, the “cleaved RNA product abundance” value came out at 0.277. Take “CGACATGTCCCGCTTCTTTCATTAATCCGTTACCAACTGTTATGCTATATACATTTACCTTTTAAGAGGAGGAAT”: the “cleaved RNA product abundance” value came to 0.307. Consider “CGACATGTCCCGCTTCTTTCATTAATCCGTTACCAACTGTTGTGCTATATACATTTACCTTTTAAGAGGAGGAAT”, for which the “cleaved RNA product abundance” value is 0.182.

Take “CGACATGTCCCGCTTCTTTCATTAATCCGTTACCAACTGTTTAGCTATATACATTTACCTTTTAAGAGGAGGAAT”: the “cleaved RNA product abundance” value amounted to 0.208. “CGACATGTCCCGCTTCTTTCATTAATCCGTTACCAACTGTTTTACTATATACATTTACCTTTTAAGAGGAGGAAT”: the “cleaved RNA product abundance” value turned out to be 0.204.

Regarding “CGACATGTCCCGCTTCTTTCATTAATCCGTTACCAACTGTTTTCCTATATACATTTACCTTTTAAGAGGAGGAAT”, the “cleaved RNA product abundance” value is 0.203. Take “CGACATGTCCCGCTTCTTTCATTAATCCGTTACCAACTGTTTTGATATATACATTTACCTTTTAAGAGGAGGAAT”: the “cleaved RNA product abundance” value is 0.276. Take “CGACATGTCCCGCTTCTTTCATTAATCCGTTACCAACTGTTTTGCAATATACATTTACCTTTTAAGAGGAGGAAT”: the “cleaved RNA product abundance” value worked out at 0.26. In the case of “CGACATGTCCCGCTTCTTTCATTAATCCGTTACCAACTGTTTTGCCATATACATTTACCTTTTAAGAGGAGGAAT” it was 0.145; in that of “CGACATGTCCCGCTTCTTTCATTAATCCGTTACCAACTGTTTTGCGATATACATTTACCTTTTAAGAGGAGGAAT”, 0.264. For “CGACATGTCCCGCTTCTTTCATTAATCCGTTACCAACTGTTTTGCTAAATACATTTACCTTTTAAGAGGAGGAAT”, the “cleaved RNA product abundance” value was 0.169. As to “CGACATGTCCCGCTTCTTTCATTAATCCGTTACCAACTGTTTTGCTACATACATTTACCTTTTAAGAGGAGGAAT”, the “cleaved RNA product abundance” value was 0.326. Under “CGACATGTCCCGCTTCTTTCATTAATCCGTTACCAACTGTTTTGCTATACACATTTACCTTTTAAGAGGAGGAAT” stands 0.212.

Regarding “CGACATGTCCCGCTTCTTTCATTAATCCGTTACCAACTGTTTTGCTATATAAATTTACCTTTTAAGAGGAGGAAT”, the “cleaved RNA product abundance” value amounted to 0.163. For the sequence “CGACATGTCCCGCTTCTTTCATTAATCCGTTACCAACTGTTTTGCTATATACAATTACCTTTTAAGAGGAGGAAT”, the “cleaved RNA product abundance” value amounted to 0.181.

For the sequence “CGACATGTCCCGCTTCTTTCATTAATCCGTTACCAACTGTTTTGCTATATACATCTACCTTTTAAGAGGAGGAAT”, the “cleaved RNA product abundance” value was 0.23. “CGACATGTCCCGCTTCTTTCATTAATCCGTTACCAACTGTTTTGCTATATACATTAACCTTTTAAGAGGAGGAAT”: the “cleaved RNA product abundance” value was determined as 0.238. Consider “CGACATGTCCCGCTTCTTTCATTAATCCGTTACCAACTGTTTTGCTATATACATTTAACTTTTAAGAGGAGGAAT”, for which the “cleaved RNA product abundance” value was found to be 0.282. In the case of “CGACATGTCCCGCTTCTTTCATTAATCCGTTACCAACTGTTTTGCTATATACATTTACATTTTAAGAGGAGGAAT” it was 0.209; in that of “CGACATGTCCCGCTTCTTTCATTAATCCGTTACCAACTGTTTTGCTATATACATTTACCGTTTAAGAGGAGGAAT”, 0.173; in that of “CGACATGTCCCGCTTCTTTCATTAATCCGTTACCAACTGTTTTGCTATATACATTTACCTTTTAAGAGGAGGAAT”, 0.255. As for “CGACATGTCCCGCTTCTTTCATTAATCCGTTACCAACTGTTTTGCTATATACATTTACTTTTTAAGAGGAGGAAT”, the “cleaved RNA product abundance” value worked out at 0.208. Take “CGACATGTCCCGCTTCTTTCATTAATCCGTTACCAACTGTTTTGCTATATACATTTATCTTTTAAGAGGAGGAAT”: the “cleaved RNA product abundance” value turned out to be 0.306.

In the case of “CGACATGTCCCGCTTCTTTCATTAATCCGTTACCAACTGTTTTGCTATATACATTTCCCTTTTAAGAGGAGGAAT”, the “cleaved RNA product abundance” value was found to be 0.127. As for “CGACATGTCCCGCTTCTTTCATTAATCCGTTACCAACTGTTTTGCTATATACATTTTCCTTTTAAGAGGAGGAAT”, the “cleaved RNA product abundance” value turned out to be 0.231. Take “CGACATGTCCCGCTTCTTTCATTAATCCGTTACCAACTGTTTTGCTATATACCTTTACCTTTTAAGAGGAGGAAT”: the “cleaved RNA product abundance” value worked out at 0.153. Take “CGACATGTCCCGCTTCTTTCATTAATCCGTTACCAACTGTTTTGCTATATACGTTTACCTTTTAAGAGGAGGAAT”: the “cleaved RNA product abundance” value is 0.253.

For the sequence “CGACATGTCCCGCTTCTTTCATTAATCCGTTACCAACTGTTTTGCTATATACTTTTACCTTTTAAGAGGAGGAAT”, the “cleaved RNA product abundance” value came to 0.145. As to “CGACATGTCCCGCTTCTTTCATTAATCCGTTACCAACTGTTTTGCTATATAGATTTACCTTTTAAGAGGAGGAAT”, the “cleaved RNA product abundance” value was 0.226.

“CGACATGTCCCGCTTCTTTCATTAATCCGTTACCAACTGTTTTGCTATATATATTTACCTTTTAAGAGGAGGAAT”: the “cleaved RNA product abundance” value stood at 0.212. Regarding “CGACATGTCCCGCTTCTTTCATTAATCCGTTACCAACTGTTTTGCTATATCCATTTACCTTTTAAGAGGAGGAAT”, the “cleaved RNA product abundance” value is 0.206.

Turning to “CGACATGTCCCGCTTCTTTCATTAATCCGTTACCAACTGTTTTGCTATTTACATTTACCTTTTAAGAGGAGGAAT”, the “cleaved RNA product abundance” value stood at 0.118.

“CGACATGTCCCGCTTCTTTCATTAATCCGTTACCAACTGTTTTGTTATATACATTTACCTTTTAAGAGGAGGAAT”: the “cleaved RNA product abundance” value was 0.231. Regarding “CGACATGTCCCGCTTCTTTCATTAATCCGTTACCAACTGTTTTTCTATATACATTTACCTTTTAAGAGGAGGAAT”, the “cleaved RNA product abundance” value was determined as 0.234. As to “CGACATGTCCCGCTTCTTTCATTAATCCGTTACCAACTTTTTTGCTATATACATTTACCTTTTAAGAGGAGGAAT”, the “cleaved RNA product abundance” value was 0.225.

Regarding “CGACATGTCCCGCTTCTTTCATTAATCCGTTACCAAGTGTTTTGCTATATACATTTACCTTTTAAGAGGAGGAAT”, the “cleaved RNA product abundance” value turned out to be 0.272.
